Source: article PMC9307851

Target: DNMT3B MTase domain (residues 569-853), R670Q (human) (UniProt Q9UBC3)

in vitro DNA methylation efficiency of the DNMT3B-DNMT3B complex on CpG DNA, reduction against WT: 3 fold
Substance: DNMT3B MTase domain (residues 569-853), R670Q (from UniProt Q9UBC3-1 569-853) (domain or fragment)
